Target: T1, BG505 gp120 (HIV-1 isolate BG505)
T1 construct: also called monomeric gp120; the monomer
Assay: ELISA; plates coated with 250 ng of BG505 gp120; monoclonal antibodies from 20 μg/mL in seven 6-fold dilutions; detected with alkaline phosphatase conjugated anti-human F(ab')2; room temperature
Details: both partners purified

Binder | binding result
Bess2 (antibody, also called Bess2 mAb; source: Expi293 or 293F cells, transfected, purified (Protein A Sepharose or Praesto AP)) VH: KVQLRESGPSLVKPSQTLSLTCTVSGFSLSDKAVGWVRQAPGKALEWLGSIDTGGSTGYNPGLKSRLSITKDNSKSQVSLSVTSVTTEDSTTYYCTTVHQTTKTTKKCPDGYNYDDGCASDLGCGEADCCCYGGYDEYGGYLYSCCSYSYTYEWYVDAWGQGLLVTVSS VL: QAVLNQPSSVSGSLGQRVSITCSGSSSNVGNGYVSWYQLIPGSAPRTLIYGDTSRASGVPDRFSGSRSGNTATLTISSLQAEDEADYFCASAEDSSSNAVFGSGTTLTVL | no binding (tested: 20 μg/mL (highest concentration))
Bess6 (antibody, also called Bess6 mAb; source: Expi293 or 293F cells, transfected, purified (Protein A Sepharose or Praesto AP)) VH: KVQLRESGPSLVKPSQTLSLICTVSGFSLSDKAVGWVRQAPGKALEWLGSIDTAGTTDHHPGLKSRLSITKDNSKNQVSLSLSSVTTEDSATYYCTTVHQPTSKQYSCPDGASVRTGGGWRWLCRGHDCCCVVEYIAYEQTPCTLTRTYEWHIDAWGQGLLVTVSS VL: QAVLNQPSSVSGSLGQRVSITCSGSSSNVGNGYVSWYQLIPGSAPRTLIYGDTSRASGVPDRFSGSRSGNTATLTISSLQAEDEADYFCASAEDSSSNAVFGSGTTLTVL | no binding (tested: 20 μg/mL (highest concentration))

Source: publication PMC11412654, “Immunization of cows with HIV envelope trimers generates broadly neutralizing antibodies to the V2-apex from the ultralong CDRH3 repertoire” (PLOS Pathogens, 2024)
